Twelve molecules from patent publication US6942981 can be followed below.

In test [1] the target is T1, GST-NeDLG PDZ domains 1-2 fusion protein (Mus musculus (Mouse), UniProt P70175 147-332).
T1 construct: also called NeDLG1; not shown: glutathione S-transferase (GST) encoded by pGEX-3X
T1 chain: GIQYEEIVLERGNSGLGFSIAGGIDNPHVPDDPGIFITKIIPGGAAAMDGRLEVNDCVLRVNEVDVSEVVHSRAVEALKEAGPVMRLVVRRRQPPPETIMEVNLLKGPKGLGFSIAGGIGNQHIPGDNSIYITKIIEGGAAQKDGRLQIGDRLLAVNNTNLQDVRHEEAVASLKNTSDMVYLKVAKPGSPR
Description: G assay.

In test [2] the target is T2, GST-LIMK2 PDZ domain fusion protein (human, UniProt P53671 147-237).
T2 construct: also called human LIM domain kinase 2; not shown: glutathione S-transferase (GST) encoded by pGEX-3X
T2 sequence: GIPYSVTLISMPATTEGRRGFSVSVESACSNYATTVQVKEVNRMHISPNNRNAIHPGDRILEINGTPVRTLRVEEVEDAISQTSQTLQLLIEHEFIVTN
As to the kind of experiment: A/G assays.

The target of test [3] is T3, GST-MPP2 PDZ domain fusion protein.
T3 construct: also called maguk p55 subfamily member 2 (DLG2); MMP2; not shown: glutathione S-transferase (GST) encoded by pGEX-3X
T3 chain: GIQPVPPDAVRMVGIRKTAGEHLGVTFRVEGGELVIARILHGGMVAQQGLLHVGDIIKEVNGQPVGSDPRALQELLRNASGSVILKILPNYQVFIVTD
As to the kind of experiment: A/G assays.

For test [4], the target named is T4, GST-DVL1 PDZ domain fusion protein (human).
T4 construct: also called human dishevelled segment polarity protein homolog; not shown: glutathione S-transferase (GST) encoded by pGEX-3X
T4 chain: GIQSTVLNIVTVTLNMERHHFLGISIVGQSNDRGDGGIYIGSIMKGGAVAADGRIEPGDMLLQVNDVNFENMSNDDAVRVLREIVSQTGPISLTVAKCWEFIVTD
As to the kind of experiment: A/G assays.

In test [5] the target is T5, GST-MINT3 PDZ domain fusion protein (human).
T5 construct: also called human MINT3; not shown: glutathione S-transferase (GST) encoded by pGEX-3X
T5 chain: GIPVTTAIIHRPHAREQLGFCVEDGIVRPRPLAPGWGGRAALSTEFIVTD
As to the kind of experiment: A/G assays.

Test [6] addresses T6, GST-TAX2 PDZ domain fusion protein (human, UniProt O14908 129-216).
T6 construct: not shown: glutathione S-transferase (GST) encoded by pGEX-3X
T6 chain: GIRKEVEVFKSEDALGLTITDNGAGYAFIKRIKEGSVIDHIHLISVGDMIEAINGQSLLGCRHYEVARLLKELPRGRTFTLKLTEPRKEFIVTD
As to the kind of experiment: A/G assays.

The target in test [7] is T7, GST-SYN1a (alpha1-syntrophin) PDZ domain fusion protein (Homo sapiens (Human), UniProt Q13424 84-179).
T7 construct: also called SYN 1 α; not shown: glutathione S-transferase (GST) encoded by pGEX-3X
T7 sequence: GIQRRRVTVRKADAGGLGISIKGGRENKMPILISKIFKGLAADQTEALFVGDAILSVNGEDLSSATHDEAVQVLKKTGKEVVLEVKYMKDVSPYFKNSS
Description: A/G assays.

The target in test [8] is T8, GST-MPP1 PDZ domain fusion protein (Homo sapiens (Human), UniProt Q00013 67-152).
T8 construct: also called 55 Kd erythrocyte membrane protein; not shown: glutathione S-transferase (GST) encoded by pGEX-3X
T8 sequence: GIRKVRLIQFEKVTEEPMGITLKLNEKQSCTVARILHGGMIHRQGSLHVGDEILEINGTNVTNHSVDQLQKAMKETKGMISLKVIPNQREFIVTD
Description: A assay.

Test [9] concerns the target T1, GST-NeDLG PDZ domains 1-2 fusion protein. Description: A assay.
For test [10], the target named is T3, GST-MPP2 PDZ domain fusion protein. Description: G assay.
Test [11] addresses T9, GST-NOS1 PDZ domain fusion protein (human, UniProt P29475 11-101).
T9 construct: also called human neuronal nitric oxide synthase; not shown: glutathione S-transferase (GST) encoded by pGEX-3X
Description: A/G assays.

Test [12] has as its target T1, GST-NeDLG PDZ domains 1-2 fusion protein. As to the kind of experiment: A and G assays.
For test [13], the target named is T10, GST-KIAA0316 PDZ domain fusion protein (Homo sapiens (Human), UniProt Q14CM0 72-159).
T10 construct: also called K316; not shown: glutathione S-transferase (GST) encoded by pGEX-3X
As to the kind of experiment: A/G assays.

In test [14] the target is T1, GST-NeDLG PDZ domains 1-2 fusion protein. Description: A/G assays.
Test [15] has as its target T11, GST-TAX33 PDZ domain fusion protein (Homo sapiens (Human), UniProt O14910 103-194).
T11 construct: not shown: glutathione S-transferase (GST) encoded by pGEX-3X
T11 sequence: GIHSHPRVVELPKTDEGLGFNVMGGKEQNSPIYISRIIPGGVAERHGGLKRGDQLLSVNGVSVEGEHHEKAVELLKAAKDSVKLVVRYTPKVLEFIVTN
Description: A/G assays.

In test [16] the target is T1, GST-NeDLG PDZ domains 1-2 fusion protein. As to the kind of experiment: G assay titration of biotinylated peptide on immobilized GST-PDZ, saturation fit (apparent affinity). The source says:
FIGS. 2A and 2B show the Apparent Affinity Determination for PDZ-Ligand Interactions. […] The binding to GST alone (<0.2 OD units) was subtracted from the binding to the fusion proteins to obtain the signal at each peptide concentration.

In test [17] the target is T12, GST-PSD95 PDZ domains 1-3 fusion protein (human, UniProt P31016 58-395 (rat entry)).
T12 construct: not shown: glutathione S-transferase (GST) encoded by pGEX-3X
Description: A assay.

Test [18] addresses T4, GST-DVL1 PDZ domain fusion protein. As to the kind of experiment: A assay.

Ends that are not written are not given here. * marks the point of attachment. Biotin = O=C1N[C@H]2[C@H](CS[C@H]2CCCCC(=O)*)N1

T9 sequence (P29475 other isoform, or with tags, fused parts or gaps): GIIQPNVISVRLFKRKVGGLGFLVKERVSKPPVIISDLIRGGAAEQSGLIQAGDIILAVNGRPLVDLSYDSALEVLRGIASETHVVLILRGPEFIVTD
T10 sequence (Q14CM0 other isoform, or with tags, fused parts or gaps): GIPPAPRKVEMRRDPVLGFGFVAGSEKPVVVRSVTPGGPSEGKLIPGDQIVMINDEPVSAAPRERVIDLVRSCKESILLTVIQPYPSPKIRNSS
T12 sequence (P31016 other isoform, or with tags, fused parts or gaps): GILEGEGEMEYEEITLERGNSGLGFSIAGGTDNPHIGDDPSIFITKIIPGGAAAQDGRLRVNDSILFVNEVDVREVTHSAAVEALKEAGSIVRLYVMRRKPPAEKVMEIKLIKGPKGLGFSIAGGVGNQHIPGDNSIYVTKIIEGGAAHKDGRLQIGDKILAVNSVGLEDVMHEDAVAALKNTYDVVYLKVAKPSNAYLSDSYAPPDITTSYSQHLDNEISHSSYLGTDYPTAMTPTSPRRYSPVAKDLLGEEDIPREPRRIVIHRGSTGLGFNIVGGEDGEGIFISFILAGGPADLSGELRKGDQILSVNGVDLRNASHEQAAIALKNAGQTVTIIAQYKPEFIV

In the case of Biotin-KKGTYLTDETHREVKFTSL [CD46 (form 1) C-terminal peptide AA10L], the binding result in test [1] is given as “binds”; in test [2] it was “no binding”; in [3], “no binding”; in test [4], “no binding”; in [5] it was “no binding”; in test [6] it was “no binding”. The binding result in [7] was “no binding”.

As to Biotin-TREDIYVNYPTFSRRPKTRV [DNAM-1 C-terminal peptide AA22L], the binding result in test [8] was “binds”; in test [9], “binds”; in test [10], “binds”; in test [2] it was “no binding”; in [11], “no binding”; in test [4] it was “no binding”. Also, the binding result in test [5], in test [6] and in [7] was “no binding” each time.

On to Biotin-KDSRPSFVGSSSGHTSTTL [CDW128B (IL8RB) C-terminal peptide AA29.2L], for which the binding result in test [2], in test [3], in test [4], in [5], in test [6] and in [7] was “no binding” throughout. In test [12], the binding result is “binds”.

On to Biotin-ERLKLEPHEGLLLRFPYAA [CD98 (2F4) C-terminal peptide AA15L], for which the binding result is “binds” in [10]; “no binding” in [2]; “no binding” in test [11]; “no binding” in test [13]; “no binding” in [4]; “no binding” in test [5]. For the same molecule, the binding result in test [6], in test [14], in test [15] and in test [7] was “no binding” each time.

For Biotin-AWDDSARAAGGQGLHVTAL [LPAP C-terminal peptide AA30L], the binding result in test [2], in test [3], in [11], in test [13], in test [4] and in test [5] was “no binding” throughout. Further, the binding result in test [6], in test [14] and in test [7] was “no binding” each time.

With Biotin-ARKANMKGSYSLVEAQKSKV [VCAM1 C-terminal peptide AA17L], the binding result in test [8] is “binds”; in test [9], “binds”; in test [2], “no binding”; in test [3] it was “no binding”; in test [4], “no binding”; in [5], “no binding”. For the same molecule, the binding result in [6] and in test [7] was “no binding” throughout.

As for Biotin-ENLAPVTTFGKTNGYIA [CD148 (DEP-1) C-terminal peptide AA19L (ending GYIA)], the binding result in test [2], in test [3], in [4], in [5], in test [6] and in test [14] was “no binding” each time. Moreover, the binding result in [7] was “no binding”.

With Biotin-VTSPNKHLGLVTPHKTELV [CD83 C-terminal peptide AA47L], the binding result is on record as “binds” in [9]; “no binding” in [2]; “no binding” in [3]; “no binding” in test [4]; “no binding” in test [5]; “no binding” in test [6]. The binding result in test [7] is “no binding”.

With Biotin-KDITSDSENSNFRNEIQSLV [CD95 (Apo-1/Fas) C-terminal peptide AA13L], the binding result in test [2], in test [3], in test [4], in [5], in test [6] and in [7] was “no binding” in each case. The Kd in [16] came out at 54 µM.

As to Biotin-ARHRVTSYTSSSVNVSSNL [CDW128A (IL8RA) C-terminal peptide AA29.1L], the binding result in test [9] is “binds”; in test [2], “no binding”; in [3], “no binding”; in test [4], “no binding”; in test [5] it was “no binding”; in test [6], “no binding”. Besides, in [7], the binding result is reported as “no binding”.

For Biotin-ISKATPALPTVSISSSAEV [CLASP-1 C-terminal peptide AA1L], the binding result in [17] is reported as “binds”; in test [1], “binds”; in test [2], “no binding”; in test [3], “no binding”; in test [4], “no binding”; in test [5], “no binding”. Also, the binding result in [6] and in [7] was “no binding” throughout.

Regarding Biotin-TTNNNPNSAVNIKKIFTDV [KV1.3 C-terminal peptide AA33L], the binding result in test [18] is given as “binds”; in [2] it was “no binding”; in test [3], “no binding”; in [5] it was “no binding”; in test [6], “no binding”; in test [7], “no binding”. The binding result in test [12] is “binds”.
